In article PMC6384901, “Cyclic Peptide-Based Sirtuin Substrates” (Molecules, 2019) one finds Km, kcat and kcat/Km data, which are given here for two proteins.

The Km is the concentration of substrate that gives half-maximal velocity.

Common to all, as to assay type: biochemical, human
Substrate in data set [1]: CCCCCCCCCCCCCC(=O)NCCCC[C@@H]1NC(=O)[C@H](CCCNC(=N)N)NC(=O)[C@@H](NC(C)=O)CCCCNC(=O)CCCCCCC(=O)NCCCC[C@@H](C(=O)N[C@H](C(N)=O)[C@@H](C)O)NC1=O
The data set is described as follows: HPLC-based sirtuin deacylation activity assay, SIRT3. The following applies: other: substrate activity with SIRT3, 50 mM Hepes pH 8.0, 3.5 mM β-NAD+, His6-SIRT3 739 nM, 37 °C, 2 min, HPLC 214 nm, Michaelis-Menten fit. The procedure:
(§1) The steady-state kinetic parameters (kcat and KM) for the SIRT1/2/3 substrate activities of the purified 5–8 were determined with a HPLC-based sirtuin deacylation activity assay and are recorded in Table 2 and Table 3. As judged by kcat/KM ratios, cyclic peptides 5–8 were all found to be excellent SIRT1 substrates, actually 5, 7, and 8 are all better SIRT1 substrates than the linear hexapeptide-based SIRT1 substrate 3 (depicted in Figure 2) reported in the current literature (kcat/KM = 800 M^−1 s^−1). Cyclic peptides 5–8 were also all found to be better SIRT3 substrates than the linear hexapeptide-based SIRT3 substrate 3 reported in the current literature (kcat/KM = 990 M^−1·s^−1).
(§2) The following materials were obtained from commercial sources for the in vitro sirtuin deacylation activity assay and the pronase digestion assay, and were used as received. Sigma-Aldrich China: the active human recombinant His6-SIRT1, Trizma, Hepes, β-NAD^+, a 1.0 M solution of MgCl2 (molecular-biology grade), the pronase from Streptomyces griseus; Cayman Chemical (Ann Arbor, MI, USA): the active human recombinant GST-SIRT1, the active human recombinant His6-SIRT2, the active human recombinant His6-SIRT3; TCI Shanghai: DL-dithiothreitol (DTT); Alfa Aesar China: NaCl, KCl.
(§3) A sirtuin deacylation assay solution contained the following: 50 mM Hepes (pH 8.0), 137 mM NaCl, 2.7 mM KCl, 1 mM MgCl2, 1 mM DTT, β-NAD^+ (~5.6 × KM: 0.5 mM for the SIRT1 and SIRT2 assays, 3.5 mM for the SIRT3 assay), one test compound (5, 6, 7, or 8) with varied concentrations including 0, and a sirtuin (His6-SIRT1 or GST-SIRT1, 243 nM; His6-SIRT2, 297 nM; or His6-SIRT3, 739 nM). An enzymatic reaction was initiated by the addition of a sirtuin at 37 °C and was incubated at 37 °C for 5 min (for the SIRT1 assay) or 2 min (for the SIRT2 and SIRT3 assays) until quenched with the following stop solution: 100 mM HCl and 0.16 M acetic acid. The quenched assay solutions were directly injected into a C18 column (0.46 × 25 cm, 5 μm), and the column was eluted with a gradient of ddH2O containing 0.05% (v/v) TFA and acetonitrile containing 0.05% (v/v) TFA at 1 mL/min and was monitored at 214 nm. Turnover of the limiting substrate was kept at <10%. Stock solutions of the test compounds were all prepared in ddH2O. The integrated product and substrate HPLC peak areas were then used to determine the initial velocities for the sirtuin-catalyzed deacylation reaction at different concentrations of a test compound (5, 6, 7, or 8). The initial velocity-concentration data were analyzed with KaleidaGraph® (Synergy Software, Reading, PA, USA) and the data were fitted to the Michaelis-Menten equation to obtain the kinetic parameters kcat and KM, as recorded in Table 2 and Table 3.

Substrate in data set [2]: CSCC[C@H](NC(=O)[C@@H]1CCCCNC(=O)CCC(=O)NCCCC[C@H](NC(C)=O)C(=O)N[C@@H](CCCCN)C(=O)N[C@@H](CCCCNC(C)=O)C(=O)N1)C(N)=O
Described as above. The conditions noted are these: other: substrate activity with SIRT3, 50 mM Hepes pH 8.0, 3.5 mM β-NAD+, His6-SIRT3 739 nM, 37 °C, 2 min, HPLC 214 nm, Michaelis-Menten fit. The procedure:
as §1, §2, §3

Substrate in data set [3]: CSCC[C@H](NC(=O)[C@@H]1CCCCNC(=O)CNC(=O)CCCCCCC(=O)NCC(=O)NCCCC[C@H](NC(C)=O)C(=O)N[C@@H](CCCCN)C(=O)N[C@@H](CCCCNC(C)=O)C(=O)N1)C(N)=O
The data set is described as above. The following applies: other: substrate activity with SIRT3, 50 mM Hepes pH 8.0, 3.5 mM β-NAD+, His6-SIRT3 739 nM, 37 °C, 2 min, HPLC 214 nm, Michaelis-Menten fit. Here is the method:
as §1, §2, §3

Substrate in data set [4]: CCCCCCCCCCCCCC(=O)NCCCC[C@@H]1NC(=O)[C@H](CCCNC(=N)N)NC(=O)[C@@H](NC(C)=O)CCCCNC(=O)CCCCCCC(=O)NCCCC[C@@H](C(=O)N[C@H](C(N)=O)[C@@H](C)O)NC1=O
In words: HPLC-based sirtuin deacylation activity assay, SIRT2. The conditions noted are these: other: substrate activity with SIRT2, 50 mM Hepes pH 8.0, 0.5 mM β-NAD+, His6-SIRT2 297 nM, 37 °C, 2 min, HPLC 214 nm, Michaelis-Menten fit. The procedure: as §1, §2, §3

Substrate in data set [5]: CSCC[C@H](NC(=O)[C@@H]1CCCCNC(=O)CCC(=O)NCCCC[C@H](NC(C)=O)C(=O)N[C@@H](CCCCN)C(=O)N[C@@H](CCCCNC(C)=O)C(=O)N1)C(N)=O
The data set is described as above. The following applies: other: substrate activity with SIRT2, 50 mM Hepes pH 8.0, 0.5 mM β-NAD+, His6-SIRT2 297 nM, 37 °C, 2 min, HPLC 214 nm, Michaelis-Menten fit. Here is the method:
as §1, §2, §3

Substrate in data set [6]: CSCC[C@H](NC(=O)[C@@H]1CCCCNC(=O)CNC(=O)CCCCCCC(=O)NCC(=O)NCCCC[C@H](NC(C)=O)C(=O)N[C@@H](CCCCN)C(=O)N[C@@H](CCCCNC(C)=O)C(=O)N1)C(N)=O
The data set is described as above. The following applies: other: substrate activity with SIRT2, 50 mM Hepes pH 8.0, 0.5 mM β-NAD+, His6-SIRT2 297 nM, 37 °C, 2 min, HPLC 214 nm, Michaelis-Menten fit. Here is the method: as §1, §2, §3

B1: human recombinant His6-SIRT3 (Homo sapiens) (protein)
chain: MAFWGWRAAAALRLWGRVVERVEAGGGVGPFQACGCRLVLGGRDDVSAGLRGSHGARGEPLDPARPLQRPPRPEVPRAFRRQPRAAAPSFFFSSIKGGRRSISFSVGASSVVGSGGSSDKGKLSLQDVAELIRARACQRVVVMVGAGISTPSGIPDFRSPGSGLYSNLQQYDLPYPEAIFELPFFFHNPKPFFTLAKELYPGNYKPNVTHYFLRLLHDKGLLLRLYTQNIDGLERVSGIPASKLVEAHGTFASATCTVCQRPFPGEDIRADVMADRVPRCPVCTGVVKPDIVFFGEPLPQRFLLHVVDFPMADLLLILGTSLEVEPFASLTEAVRSSVPRLLINRDLVGPLAWHPRSRDVAQLGDVVHGVESLVELLGWTEEMRDLVQRETGKLDGPDK
notes: His6; purchased Cayman Chemical
As to B1, in data set [1], the Km was 4.2 ± 0.38 µM; the kcat is on record as 60.0 ± 2.8 10^−3, s^−1; the kcat/Km result was “(14.3 ± 0.66) × 10^3 M^−1·s^−1”. Further, in data set [2], the Km is 34.9 ± 4.04 µM; the kcat is 155.3 ± 16.6 10^−3, s^−1; the kcat/Km result is reported as “(4.51 ± 1.0) × 10^3 M^−1·s^−1”. In data set [3], the Km worked out at 4.5 ± 0.9 µM; the kcat is reported as 15.8 ± 1.4 10^−3, s^−1; the kcat/Km result was “(3.6 ± 0.4) × 10^3 M^−1·s^−1”.

B2: human recombinant His6-SIRT2 (Homo sapiens) (protein)
chain: MAEPDPSHPLETQAGKVQEAQDSDSDSEGGAAGGEADMDFLRNLFSQTLSLGSQKERLLDELTLEGVARYMQSERCRRVICLVGAGISTSAGIPDFRSPSTGLYDNLEKYHLPYPEAIFEISYFKKHPEPFFALAKELYPGQFKPTICHYFMRLLKDKGLLLRCYTQNIDTLERIAGLEQEDLVEAHGTFYTSHCVSASCRHEYPLSWMKEKIFSEVTPKCEDCQSLVKPDIVFFGESLPARFFSCMQSDFLKVDLLLVMGTSLQVQPFASLISKAPLSTPRLLINKEKAGQSDPFLGMIMGLGGGMDFDSKKAYRDVAWLGECDQGCLALAELLGWKKELEDLVRREHASIDAQSGAGVPNPSTSASPKKSPPPAKDEARTTEREKPQ
notes: as for B1
With B2, in data set [4], the Km worked out at 37.6 ± 14.4 µM; the kcat is reported as 90.9 ± 2.62 10^−3, s^−1; the kcat/Km result is “(2.6 ± 0.93) × 10^3 M^−1·s^−1”. In data set [5], the Michaelis constant (Km) is 49.7 ± 7.78 µM; the kcat is 138.9 ± 26.7 10^−3, s^−1; the kcat/Km result was “(2.79 ± 0.1) × 10^3 M^−1·s^−1”. In data set [6], the Michaelis-Menten constant (Km) was determined as 11.6 ± 2.2 µM; the kcat was 36.0 ± 4.9 10^−3, s^−1; the kcat/Km result is listed as “(3.2 ± 1.0) × 10^3 M^−1·s^−1”.
